The source of these data is paper PMC3928423, “RRP6 from Trypanosoma brucei: Crystal Structure of the Catalytic Domain, Association with EAP3 and Activity towards Structured and Non-Structured RNA Substrates” (PLoS ONE, 2014).

The target of data set [1] is TbEAP3ΔC2 (residues 1 to 144) (Trypanosoma brucei). In words: SEC-MALS; under reducing condition (10 mM DTT); data not shown. A general note: In gel filtration, larger molecules generally elute earlier.
Data set [2] shares this target. Kind of data set: SEC-MALS; HPLC (Shimadzu), Shodex KW-804 or KW-803 column, proteins at 5 mg/mL in 50 mM Tris-HCl pH 7.5, 500 mM NaCl, 5% glycerol, 0.5 mL/min; miniDAWN TREOS.
The target in data set [3] is TbRRP6ΔC (residues 20 to 540) (Trypanosoma brucei) (UniProt Q95Z10). The data set is described as above.
A further data set addresses T1, TbEAP3ΔC2 (Trypanosoma brucei, UniProt Q582G1 1-144).
T1 sequence: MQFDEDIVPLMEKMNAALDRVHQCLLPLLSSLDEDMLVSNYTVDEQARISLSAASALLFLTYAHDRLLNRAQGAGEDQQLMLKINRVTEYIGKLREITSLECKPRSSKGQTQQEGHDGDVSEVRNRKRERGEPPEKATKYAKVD
Kind of data set: EMSA; 5 mM MnCl2; protein 5-50 uM; 10 mM Tris-HCl pH 8.0, 10 mM DTT, 25 mM KCl, 5 mM MnCl2; 50 nM oligonucleotide; 5, 10 or 50 uM protein; 30 min on ice; native 6% gel, 0.25x TBE, 0.5% glycerol. Particulars: protein: recombinant, tags: pET21a, chain copies: 2. Background: Mobility shift assays separate free from complexed probe on a gel.

The target in another data set is T2, TbEAP3ΔC1 (Trypanosoma brucei, UniProt Q582G1 1-183).
T2 sequence: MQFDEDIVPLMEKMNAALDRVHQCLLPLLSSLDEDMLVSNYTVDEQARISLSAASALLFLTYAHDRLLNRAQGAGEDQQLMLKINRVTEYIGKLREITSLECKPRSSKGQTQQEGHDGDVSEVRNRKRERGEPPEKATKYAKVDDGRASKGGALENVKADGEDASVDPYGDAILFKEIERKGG
The description is as above. Particulars: protein: recombinant, tags: pET21a, chain copies: 2.

Data set [4] deals with the molecule itself. Kind of data set: SEC-MALS; HPLC (Shimadzu), Shodex KW-804 or KW-803 column, proteins at 5 mg/mL in 50 mM Tris-HCl pH 7.5, 500 mM NaCl, 5% glycerol, 0.5 mL/min; miniDAWN TREOS.
The mark [5] stands for this setting: label: 5'-FAM on strand 1, blunt.
[6] abbreviates: label: 5'-FAM, hairpin with 20 nt 3' extension.

Broadly, the stoichiometry N is a count of units in the complex or per binding partner. Regarding “TbEAP3ΔC2 (residues 1 to 144) (domain or fragment)”, the stoichiometry N in data set [1] was 2; in data set [2], 2; in data set [3], 1.

B1: dsRNA (dsRNA)
RNA 1: CCAAAAAAAAAAAAACCACUCACUCACUCA
RNA 2: UGAGUGAGUGAGUGGUUUUUUUUUUUUUGG
B1: the binding result in the data set with TbEAP3ΔC2 (setting [5]) and in the data set with TbEAP3ΔC1 (setting [5]) was “no binding” each time.
In the case of AUUUAUUUAGGGCGGGCGCAAGCCCGCCCUAUUUAUUAUUUAUUAUUUA (structured_RNA) [GNRA20], the binding result with TbEAP3ΔC2 (setting [6]) and with TbEAP3ΔC1 (setting [6]) was “no binding” each time.

B2: dsDNA (dsDNA)
DNA 1: CCAAAAAAAAAAAAACCACTCACTCACTCA
DNA 2: TGAGTGAGTGAGTGGTTTTTTTTTTTTTGG
For B2, the binding result in the data set with TbEAP3ΔC2 (setting [5]) and with TbEAP3ΔC1 (setting [5]) was “no binding” throughout.

B3: TbEAP3ΔC1 (residues 1 to 183) (domain or fragment, Trypanosoma brucei, UniProt Q582G1 1-183, looked up)
chain: MQFDEDIVPLMEKMNAALDRVHQCLLPLLSSLDEDMLVSNYTVDEQARISLSAASALLFLTYAHDRLLNRAQGAGEDQQLMLKINRVTEYIGKLREITSLECKPRSSKGQTQQEGHDGDVSEVRNRKRERGEPPEKATKYAKVDDGRASKGGALENVKADGEDASVDPYGDAILFKEIERKGG
notes: TbEAP3, Trypanosoma brucei, gene Tb927.7.5460, residues 1-183 (C-terminal truncation); one copy in the heterodimer with TbRRP6ΔC; source: E. coli C3022 (pET21a), purified (His-Trap, Superdex 200, mono Q); also co-expressed with TbRRP6ΔC and co-purified
On to B3, for which the stoichiometry N worked out at 1 in data set [3] and 2 in data set [4].
For CCAAAAAAAAAAAAACCACUCACUCACUCA (ssRNA) [ssRNA], the binding result with TbEAP3ΔC2 (label: 5'-FAM, single strand) is given as “no binding”; with TbEAP3ΔC1 (label: 5'-FAM, single strand) it was “no binding”.
As to CCAAAAAAAAAAAAACCACTCACTCACTCA (ssDNA) [ssDNA], the binding result is recorded as “no binding” with TbEAP3ΔC2 (label: 5'-FAM, single strand) and “no binding” in the data set with TbEAP3ΔC1 (label: 5'-FAM, single strand).
